Test results reported in paper PMC10350561 (MicrobiologyOpen, 2023).

Target: staphylococcal superantigen-like protein 1 (Staphylococcus aureus, strain of the …, UniProt A0A0H3KAV3)
Experiment: ELISA
Conditions: one partner purified

Chain of staphylococcal superantigen-like protein 1 (A0A0H3KAV3 31-226): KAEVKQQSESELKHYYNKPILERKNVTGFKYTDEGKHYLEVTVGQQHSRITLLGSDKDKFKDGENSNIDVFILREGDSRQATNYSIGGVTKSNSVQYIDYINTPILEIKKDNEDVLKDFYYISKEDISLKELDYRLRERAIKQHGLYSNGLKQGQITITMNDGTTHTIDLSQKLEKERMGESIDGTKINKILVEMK

B1: scFv-99 (scFv-ALP fusion) (scFv, V domains shown)
VH: EVQLLESGGGLVQPGGSLRLSCAASGFTFSNYSMHWVRQAPGKGLEWVSVIDYNSGYTDYADSVKGRFTISRDNSKNTLYLQMNSLRAEDTAVYYCARGIFDYWGQGTLVTVSS
VL: EIVLTQSPGTLSLSPGERATLSCRASQSVSSSALAWYQQKPGQAPRLLIYGASSRATGVPDRFSGSGSGTDFTLTISRLEPEDFAVYYCQQSSSTPWTFGQGTKVEIK
  binding result: binds
